Laboratory results published in PMC9482650, “Quantitative fragmentomics allow affinity mapping of interactomes” (Nature Communications, 2022).

Key:
Assay in all cases: holdup assay
Design in all cases: key: below the threshold = too weak to quantify, mostly under pKd 3.1 to 4
Conditions in all cases: plain residues with an end cap or a label only (N-terminal biotin on a linker: ado-ado)
NHERF4_1, Q86UT5-2 = molecular target: NHERF4_1, Q86UT5-2
MAGI1_1, Q96QZ7 = molecular target: MAGI1_1, Q96QZ7
Inadl_9, Q8NI35 = molecular target: Inadl_9, Q8NI35
PARD3_3, Q8TEW0 = molecular target: PARD3_3, Q8TEW0
LIMK2, P53671 = molecular target: LIMK2, P53671
LNX2_3, Q8N448 = molecular target: T1, LNX2_3, Q8N448
T1 sequence (Q8N448 463-564, limits assumed, looked up): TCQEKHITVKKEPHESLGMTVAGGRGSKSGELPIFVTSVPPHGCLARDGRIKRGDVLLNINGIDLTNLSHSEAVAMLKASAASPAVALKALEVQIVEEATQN

SCRIB_1, Q14160 = molecular target: SCRIB_1, Q14160
IL16_4, Q14005 = molecular target: IL16_4, Q14005
CARD11, Q9BXL7 = molecular target: T2, CARD11, Q9BXL7
T2 sequence (Q9BXL7 662-765, limits assumed, looked up): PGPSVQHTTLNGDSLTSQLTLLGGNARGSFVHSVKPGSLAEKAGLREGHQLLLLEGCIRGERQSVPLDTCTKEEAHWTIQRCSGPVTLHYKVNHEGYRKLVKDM

DLG4_3, P78352 = molecular target: DLG4_3, P78352
GRIP2_4, Q9C0E4 = molecular target: GRIP2_4, Q9C0E4
PDZD2_2, O15018 = molecular target: T3, PDZD2_2, O15018
T3 sequence (O15018 329-429, limits assumed, looked up): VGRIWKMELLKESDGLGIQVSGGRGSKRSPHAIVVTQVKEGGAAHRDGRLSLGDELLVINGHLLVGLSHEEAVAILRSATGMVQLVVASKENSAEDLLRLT

MAGI2_2, Q86UL8 = molecular target: MAGI2_2, Q86UL8
TJP2_1, Q9UDY2 = molecular target: TJP2_1, Q9UDY2
NHERF2_2, Q15599 = molecular target: NHERF2_2, Q15599
RAPGEF6, Q8TEU7 = molecular target: T4, RAPGEF6, Q8TEU7
T4 sequence (Q8TEU7 525-625, limits assumed, looked up): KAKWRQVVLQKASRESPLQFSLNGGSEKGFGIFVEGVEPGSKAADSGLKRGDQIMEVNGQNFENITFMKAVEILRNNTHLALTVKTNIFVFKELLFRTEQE

Inadl_3, Q8NI35 = molecular target: Inadl_3, Q8NI35
SNX27, Q96L92 = molecular target: SNX27, Q96L92
MPDZ_12, O75970 = molecular target: T5, MPDZ_12, O75970
T5 sequence (O75970 1857-1958, limits assumed, looked up): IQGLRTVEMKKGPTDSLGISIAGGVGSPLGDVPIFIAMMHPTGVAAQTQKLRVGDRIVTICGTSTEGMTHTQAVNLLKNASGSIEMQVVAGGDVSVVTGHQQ

APBA1_2, Q02410 = molecular target: T6, APBA1_2, Q02410
T6 sequence (Q02410 742-832, limits assumed, looked up): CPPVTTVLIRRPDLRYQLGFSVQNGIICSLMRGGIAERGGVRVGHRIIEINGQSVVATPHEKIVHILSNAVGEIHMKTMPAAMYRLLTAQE

LNX1_3, Q8TBB1 = molecular target: LNX1_3, Q8TBB1
HTRA2, O43464 = molecular target: HTRA2, O43464
NHERF3_4, Q5T2W1 = molecular target: T7, NHERF3_4, Q5T2W1
T7 sequence (Q5T2W1 373-468, limits assumed, looked up): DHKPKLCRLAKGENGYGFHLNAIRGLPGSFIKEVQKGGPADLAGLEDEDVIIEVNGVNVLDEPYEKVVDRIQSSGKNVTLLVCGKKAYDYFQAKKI

LIN7A, O14910 = molecular target: T8, LIN7A, O14910
T8 sequence (O14910 103-200, limits assumed, looked up): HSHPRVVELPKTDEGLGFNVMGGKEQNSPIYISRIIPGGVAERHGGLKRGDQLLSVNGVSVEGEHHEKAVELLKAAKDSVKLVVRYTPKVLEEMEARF

SHANK1, Q9Y566 = molecular target: T9, SHANK1, Q9Y566
T9 sequence (Q9Y566 658-767, limits assumed, looked up): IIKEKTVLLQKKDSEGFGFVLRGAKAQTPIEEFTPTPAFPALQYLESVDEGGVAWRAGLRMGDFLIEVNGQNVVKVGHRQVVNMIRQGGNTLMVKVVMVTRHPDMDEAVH

DLG5_1, Q8TDM6 = molecular target: DLG5_1, Q8TDM6
Inadl_8, Q8NI35 = molecular target: Inadl_8, Q8NI35
GRIP2_6, Q9C0E4 = molecular target: GRIP2_6, Q9C0E4
GRASP, Q7Z6J2 = molecular target: GRASP, Q7Z6J2
GRASP, Q7Z6J2, sequence (Q7Z6J2 96-193): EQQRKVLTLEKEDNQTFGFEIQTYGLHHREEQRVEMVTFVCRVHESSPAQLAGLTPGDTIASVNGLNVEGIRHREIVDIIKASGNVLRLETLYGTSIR

LIMK2, P53671, sequence (P53671 143-248): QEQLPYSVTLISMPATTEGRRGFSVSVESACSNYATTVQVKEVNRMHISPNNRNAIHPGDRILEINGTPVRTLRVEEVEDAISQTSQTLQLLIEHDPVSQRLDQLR
HTRA2, O43464, sequence (O43464 355-458): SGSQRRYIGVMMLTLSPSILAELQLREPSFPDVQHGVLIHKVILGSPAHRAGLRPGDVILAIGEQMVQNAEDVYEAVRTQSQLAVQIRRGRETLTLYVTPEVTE
GRIP2_4, Q9C0E4, sequence (Q9C0E4 446-548): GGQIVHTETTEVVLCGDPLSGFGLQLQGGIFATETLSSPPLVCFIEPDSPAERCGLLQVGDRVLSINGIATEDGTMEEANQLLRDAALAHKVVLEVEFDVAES
DLG5_1, Q8TDM6, sequence (Q8TDM6 617-713): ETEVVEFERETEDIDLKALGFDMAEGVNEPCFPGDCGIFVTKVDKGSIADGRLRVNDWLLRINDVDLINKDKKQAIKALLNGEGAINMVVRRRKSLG
DLG4_3, P78352, sequence (P78352 306-403): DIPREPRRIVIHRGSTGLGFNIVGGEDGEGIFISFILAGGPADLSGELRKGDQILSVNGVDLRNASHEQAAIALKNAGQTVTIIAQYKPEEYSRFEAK
Inadl_9, Q8NI35, sequence (Q8NI35 1530-1615): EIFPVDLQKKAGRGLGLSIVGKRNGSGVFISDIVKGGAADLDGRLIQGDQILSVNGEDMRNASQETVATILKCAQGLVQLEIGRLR
NHERF4_1, Q86UT5-2, sequence (Q86UT5 other isoform, or with tags, fused parts or gaps): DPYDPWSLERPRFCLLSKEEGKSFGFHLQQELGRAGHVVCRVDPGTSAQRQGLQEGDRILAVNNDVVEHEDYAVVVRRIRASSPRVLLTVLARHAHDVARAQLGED
Inadl_3, Q8NI35, sequence (Q8NI35 359-469): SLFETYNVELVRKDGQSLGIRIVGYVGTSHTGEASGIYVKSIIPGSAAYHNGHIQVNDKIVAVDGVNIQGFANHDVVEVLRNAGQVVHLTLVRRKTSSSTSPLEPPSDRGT
SCRIB_1, Q14160, sequence (Q14160 718-814): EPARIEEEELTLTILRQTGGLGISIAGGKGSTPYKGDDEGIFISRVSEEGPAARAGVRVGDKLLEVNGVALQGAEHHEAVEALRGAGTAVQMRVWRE
Inadl_8, Q8NI35, sequence (Q8NI35 1425-1530): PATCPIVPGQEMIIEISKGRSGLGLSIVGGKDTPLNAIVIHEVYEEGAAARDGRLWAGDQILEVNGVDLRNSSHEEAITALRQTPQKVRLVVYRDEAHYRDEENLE
MAGI2_2, Q86UL8, sequence (Q86UL8 410-522): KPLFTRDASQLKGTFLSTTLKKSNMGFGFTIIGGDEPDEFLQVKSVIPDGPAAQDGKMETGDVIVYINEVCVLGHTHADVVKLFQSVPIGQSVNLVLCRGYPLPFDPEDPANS
IL16_4, Q14005, sequence (Q14005 1229-1329): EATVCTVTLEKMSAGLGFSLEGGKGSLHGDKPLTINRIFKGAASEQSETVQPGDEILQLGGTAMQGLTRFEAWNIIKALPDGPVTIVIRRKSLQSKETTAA
PARD3_3, Q8TEW0, sequence (Q8TEW0 582-685): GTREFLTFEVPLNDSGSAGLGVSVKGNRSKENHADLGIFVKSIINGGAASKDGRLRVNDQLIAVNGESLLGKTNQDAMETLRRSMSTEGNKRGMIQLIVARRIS
TJP2_1, Q9UDY2, sequence (Q9UDY2 24-128): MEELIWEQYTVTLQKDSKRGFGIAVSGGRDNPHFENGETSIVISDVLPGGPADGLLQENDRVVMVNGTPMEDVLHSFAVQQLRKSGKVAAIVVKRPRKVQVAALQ
NHERF2_2, Q15599, sequence (Q15599 142-238): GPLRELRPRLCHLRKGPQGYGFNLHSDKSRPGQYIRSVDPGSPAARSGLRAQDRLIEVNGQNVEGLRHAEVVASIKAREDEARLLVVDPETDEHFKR
MAGI1_1, Q96QZ7, sequence (Q96QZ7 1-106): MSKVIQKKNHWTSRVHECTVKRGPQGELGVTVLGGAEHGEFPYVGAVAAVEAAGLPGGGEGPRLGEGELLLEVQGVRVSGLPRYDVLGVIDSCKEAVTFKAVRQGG
GRIP2_6, Q9C0E4, sequence (Q9C0E4 648-740): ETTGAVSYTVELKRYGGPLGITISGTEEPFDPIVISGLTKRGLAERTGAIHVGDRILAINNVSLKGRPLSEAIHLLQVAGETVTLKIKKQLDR
LNX1_3, Q8TBB1, sequence (Q8TBB1 500-596): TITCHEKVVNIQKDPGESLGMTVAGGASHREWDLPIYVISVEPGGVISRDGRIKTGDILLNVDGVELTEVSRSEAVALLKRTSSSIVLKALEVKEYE

Row | Binder | pKd (NHERF4_1, Q86UT5-2) | pKd (MAGI1_1, Q96QZ7) | pKd (Inadl_9, Q8NI35) | pKd (PARD3_3, Q8TEW0) | pKd (LIMK2, P53671) | pKd (LNX2_3, Q8N448) | pKd (SCRIB_1, Q14160) | pKd (IL16_4, Q14005) | pKd (CARD11, Q9BXL7) | pKd (DLG4_3, P78352) | pKd (GRIP2_4, Q9C0E4) | pKd (PDZD2_2, O15018) | pKd (MAGI2_2, Q86UL8) | pKd (TJP2_1, Q9UDY2) | pKd (NHERF2_2, Q15599) | pKd (RAPGEF6, Q8TEU7) | pKd (Inadl_3, Q8NI35) | pKd (SNX27, Q96L92) | pKd (MPDZ_12, O75970) | pKd (APBA1_2, Q02410) | further results
1 | RDFDYIADWC [PKN2, Q16513] | 4.34 | below the threshold | 4.34 | 3.76 | below the threshold | below the threshold | below the threshold | below the threshold | below the threshold | below the threshold | below the threshold | 5.54 | below the threshold | 4.48 | below the threshold | below the threshold | 3.6 | 4.32 | 4.2 | 3.82 | pKd (LNX1_3, Q8TBB1): below the threshold; pKd (HTRA2, O43464): 5.11; pKd (NHERF3_4, Q5T2W1): below the threshold; pKd (LIN7A, O14910): below the threshold; pKd (SHANK1, Q9Y566): below the threshold; pKd (DLG5_1, Q8TDM6): below the threshold; pKd (Inadl_8, Q8NI35): 4.55; pKd (GRIP2_6, Q9C0E4): below the threshold; pKd (GRASP, Q7Z6J2): 4.3
2 | RRLQGTSSMV [GOLT1A, Q6ZVE7] | below the threshold | below the threshold | below the threshold | below the threshold | below the threshold | below the threshold | below the threshold | below the threshold | below the threshold | below the threshold | below the threshold | 5.16 | 4.69 | 3.59 | below the threshold | below the threshold | below the threshold | below the threshold | below the threshold | 3.71 | pKd (LNX1_3, Q8TBB1): below the threshold; pKd (HTRA2, O43464): below the threshold; pKd (NHERF3_4, Q5T2W1): below the threshold; pKd (LIN7A, O14910): below the threshold; pKd (SHANK1, Q9Y566): below the threshold; pKd (DLG5_1, Q8TDM6): below the threshold; pKd (Inadl_8, Q8NI35): 4.08; pKd (GRIP2_6, Q9C0E4): below the threshold; pKd (GRASP, Q7Z6J2): 3.89
3 | LDKESFLTWL [YAP1, P46937] | 4.15 | 3.65 | 3.99 | 4.98 | below the threshold | below the threshold | 4.47 | below the threshold | 3.64 | below the threshold | below the threshold | 5.88 | 3.55 | 5.19 | 5.19 | below the threshold | 4.38 | 5.11 | 4.98 | 4.88 | pKd (LNX1_3, Q8TBB1): below the threshold; pKd (HTRA2, O43464): 4.73; pKd (NHERF3_4, Q5T2W1): 4.18; pKd (LIN7A, O14910): below the threshold; pKd (SHANK1, Q9Y566): 5.4; pKd (DLG5_1, Q8TDM6): below the threshold; pKd (Inadl_8, Q8NI35): 3.48; pKd (GRIP2_6, Q9C0E4): below the threshold; pKd (GRASP, Q7Z6J2): 5.31
4 | NRVDSKETEC [ADAM17, P78536] | 3.68 | 3.53 | below the threshold | below the threshold | 3.48 | below the threshold | 4.49 | 3.6 | below the threshold | 4.42 | below the threshold | below the threshold | below the threshold | below the threshold | below the threshold | below the threshold | below the threshold | 5.06 | below the threshold | below the threshold | pKd (LNX1_3, Q8TBB1): below the threshold; pKd (HTRA2, O43464): below the threshold; pKd (NHERF3_4, Q5T2W1): 3.49; pKd (LIN7A, O14910): below the threshold; pKd (SHANK1, Q9Y566): below the threshold; pKd (DLG5_1, Q8TDM6): below the threshold; pKd (Inadl_8, Q8NI35): below the threshold; pKd (GRIP2_6, Q9C0E4): below the threshold; pKd (GRASP, Q7Z6J2): below the threshold
5 | VRPGVKESLV [SCN4A, P35499] | 3.76 | below the threshold | 3.71 | below the threshold | below the threshold | below the threshold | 4.48 | below the threshold | below the threshold | 4.39 | below the threshold | 5.17 | 5.2 | below the threshold | below the threshold | below the threshold | below the threshold | 5.28 | below the threshold | below the threshold | pKd (LNX1_3, Q8TBB1): below the threshold; pKd (HTRA2, O43464): below the threshold; pKd (NHERF3_4, Q5T2W1): below the threshold; pKd (LIN7A, O14910): 3.94; pKd (SHANK1, Q9Y566): below the threshold; pKd (DLG5_1, Q8TDM6): below the threshold; pKd (Inadl_8, Q8NI35): 4.15; pKd (GRIP2_6, Q9C0E4): below the threshold; pKd (GRASP, Q7Z6J2): below the threshold
